Data set [1] deals with T1, GST-RelB deletion mutant Δ1 (amino acids 274-321).
T1 chain: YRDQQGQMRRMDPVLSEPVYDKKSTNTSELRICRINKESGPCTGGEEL

Data set [2] has as its target T2, GST-RelB deletion mutant Δ2 (amino acids 316-377).
T2 chain: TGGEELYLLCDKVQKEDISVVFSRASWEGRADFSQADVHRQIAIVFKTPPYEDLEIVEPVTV

Data set [3] has as its target T3, GST-RelB deletion mutant Δ3 (amino acids 372-448).
T3 chain: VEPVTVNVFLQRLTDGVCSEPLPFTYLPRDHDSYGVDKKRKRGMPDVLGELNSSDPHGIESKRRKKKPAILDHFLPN

Data set [4] deals with T4, GST-RelB deletion mutant Δ4 (amino acids 441-504).
T4 chain: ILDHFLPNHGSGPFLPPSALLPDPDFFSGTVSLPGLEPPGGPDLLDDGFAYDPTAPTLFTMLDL

The target in data set [5] is T5, GST-RelB deletion mutant Δ5 (amino acids 499-580).
T5 chain: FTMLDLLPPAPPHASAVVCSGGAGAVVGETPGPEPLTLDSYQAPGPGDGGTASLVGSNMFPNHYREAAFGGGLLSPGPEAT

The target of data set [6] is T6, GST-RelB Δ4 point mutant S451A.
T6 chain: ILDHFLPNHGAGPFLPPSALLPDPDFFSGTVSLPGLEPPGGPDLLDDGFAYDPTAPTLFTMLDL

The target of data set [7] is T7, GST-RelB Δ4 point mutant S458A.
T7 chain: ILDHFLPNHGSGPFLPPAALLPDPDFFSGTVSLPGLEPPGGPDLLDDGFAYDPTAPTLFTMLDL

The target of data set [8] is T8, GST-RelB Δ4 point mutant S468A.
T8 chain: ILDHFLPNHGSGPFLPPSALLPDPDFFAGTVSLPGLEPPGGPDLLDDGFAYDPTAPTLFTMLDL

In data set [9] the target is T9, GST-RelB Δ4 point mutant S472A.
T9 chain: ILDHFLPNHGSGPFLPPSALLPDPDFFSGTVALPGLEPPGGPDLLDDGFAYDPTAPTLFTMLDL

B1: IκB kinase (IKK) complex (endogenous, WT MEFs) (protein)
chain 1: MERPPGLRPGAGGPWEMRERLGTGGFGNVSLYQHRELDLKIAIKSCRLELSSKNRERWCHEIQIMKKLDHANVVKACDVPEELNFLINDVPLLAMEYCSGGDLRKLLNKPENCCGLKESQILSLLSDIGSGIRYLHENKIIHRDLKPENIVLQDVGGKTIHKIIDLGYAKDVDQGSLCTSFVGTLQYLAPELFENKPYTATVDYWSFGTMVFECIAGYRPFLHHLQPFTWHEKIKKKDPKCIFACEEMTGEVRFSSHLPQPNSLCSLIVEPMESWLQLMLNWDPQQRGGPIDLTLKQPRCFALMDHILNLKIVHILNMTSAKIISFLLPCDESLHSLQSRIERETGINTGSQELLSETGISLDPRKPASQCVLDGVRGCDSYMVYLFDKSKTVYEGPFASRSLSDCVNYIVQDSKIQLPIIQLRKVWAEAVHYVSGLKEDYSRLFQGQRAAMLSLLRYNANLTKMKNTLISASQQLKAKLEFFRKSIQLDLERYSEQMTYGISSEKMLKAWKEMEEKAIHYSEVGVIGYLEDQIMSLHTEIMELQKSPYGRRQGDLMESLEQRAIDLYKQLKHRPPDHLYSDSTEMVKIIVHTVQSQDRVLKELFGHLSKLLGCKQKIIDLLPKVEVALSNIKEADNTVMFMQGKRQKEIWHLLKIACTQSSARSLVGSSLEGTVTPPVSAWLPPTLADREHPLTCVVTPQDGETLAQMIEENLNCLGHLSTIIREANEDQSSSLMSLDWSWLAE
chain 2: MSWSPSLPTQTCGAWEMKERLGTGGFGNVIRWHNQATGEQIAIKQCRQELSPKNRNRWCLEIQIMRRLNHPNVVAARDVPEGMQNLAPNDLPLLAMEYCQGGDLRRYLNQFENCCGLREGAVLTLLSDIASALRYLHENRIIHRDLKPENIVLQQGEKRLIHKIIDLGYAKELDQGSLCTSFVGTLQYLAPELLEQQKYTVTVDYWSFGTLAFECITGFRPFLPNWQPVQWHSKVRQKSEVDIVVSEDLNGAVKFSSSLPFPNNLNSVLAERLEKWLQLMLMWHPRQRGTDPQYGPNGCFRALDDILNLKLVHVLNMVTGTVHTYPVTEDESLQSLKTRIQENTGILETDQELLQKAGLVLLPDKPATQCISDSKTNEGLTLDMDLVFLLDNSKINYETQITPRPPPESVSCILQEPKRNLSFFQLRKVWGQVWHSIQTLKEDCNRLQQGQRAAMMSLLRNNSCLSKMKNAMASTAQQLKAKLDFFKTSIQIDLEKYKEQTEFGITSDKLLLAWREMEQAVEQCGRENDVKHLVERMMALQTDIVDLQRSPMGRKQGGTLDDLEEQARELYRKLREKPRDQRTEGDSQEMVRLLLQAIQSFEKKVRVIYTQLSKTVVCKQKALELLPKVEEVVSLMNEDERTVVRLQEKRQKELWNLLKIACSKVRGPVSGSPDSMNVSRLSHPGQLMSQPSSACDSLPESDKKSEELVAEAHALCSRLESALQDTVKEQDRSFTTLDWSWLQMEDEERCSLEQACD
chain 3: MNKHPWKNQLSEMVQPSGGPAEDQDMLGEESSLGKPAMLHLPSEQGTPETLQRCLEENQELRDAIRQSNQMLRERCEELLHFQVSQREEKEFLMCKFQEARKLVERLSLEKLDLRSQREQALKELEQLKKCQQQMAEDKASVKAQVTSLLGELQESQSRLEAATKDRQALEGRIRAVSEQVRQLESEREVLQQQHSVQVDQLRMQNQSVEAALRMERQAASEEKRKLAQLQAAYHQLFQDYDSHIKSSKGMQLEDLRQQLQQAEEALVAKQELIDKLKEEAEQHKIVMETVPVLKAQADIYKADFQAERHAREKLVEKKEYLQEQLEQLQREFNKLKVGCHESARIEDMRKRHVETPQPPLLPAPAHHSFHLALSNQRRSPPEEPPDFCCPKCQYQAPDMDTLQIHVMECIE
For the protein B1, the “IKKγ kinase assays (phosphorylation of the GST-RelB substrate, 32P autoradiography)” value in [1], in data set [2], in data set [3], in data set [4] and in [5] was “Only mutant Δ4 was efficiently phosphorylated by IKKγ” each time. Further, the “in vitro kinase assays (phosphorylation of GST-RelB Δ4 point mutants)” value in data set [6], in data set [7], in data set [8] and in [9] was “only a point mutation at serine 472 abolished phosphorylation of the Δ4 RelB deletion mutant” in each case.

Values taken from patent US20160047821.
